In US20230095569A1 (ANTENGENE BIOLOGICS, published 2023):

Experiments:
[1] = target: T1, human Claudin18.2 (CLDN18.2) (human, UniProt P56856 1-261); experiment: FACS on CHOK1-18.2 cells;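 note: antibody binding to the cells detected with a fluorescently labelled secondary antibody and read out as median fluorescence intensity by flow cytometry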
T1 construct: the cell line is named under assay; also called human Claudine18.2; hClaudin18.2
Method: (§1) The specificity and cross-reactivity of these subclones were confirmed with FACs analysis. […] Fluorescent dye-conjugated secondary antibody was used to detect the binding of the primary antibody with the cells. Median fluorescence intensity (MFI) was measured by FACs analysis.

[2] = target: T2, human Claudin18.1 (CLDN18.1) (human, UniProt P56856 1-261); experiment: FACS on CHOK1-18.1 cells;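 for FACS MFI: test antibody binding to the cells detected by flow cytometry using a fluorescent dye-labelled secondary antibody, read out as median fluorescence intensity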;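 for result: antibody binding to cells detected with a fluorescently labelled secondary antibody, read out as median fluorescence intensity (MFI) by flow cytometry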
T2 construct: whole, on cells; also called human Claudine18.1
Method: as §1

[3] = target: T2, human Claudin18.1 (CLDN18.1); experiment: FACS on CHOK1-18.1 cells; remark: listed apart in the source;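 for FACS MFI: test antibody binding to the cells detected by flow cytometry using a fluorescent dye-labelled secondary antibody, read out as median fluorescence intensity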;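 for result: antibody binding to cells detected with a fluorescently labelled secondary antibody, read out as median fluorescence intensity (MFI) by flow cytometry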
Method: as §1

FACS MFI [1] | FACS MFI [2] | binding result [3] | Binder
15700 | – | – | Ab38 (antibody, V domains shown, mouse monoclonal (hybridoma)) VH: QIQLVQSGPELKKPGETVKISCKASGYTFTNYGMSWVKQAPGKGLKWMGWINTYSGVPTYADDFKGRFVFSLEASASTAYLQINNLKNEDAATYFCSRWSGPDPLEDHWGQGTTLTVSS VL: QIVLTQSPAIMSASPGEKVTMTCTASLSLNYIHWYRQRSGTSPKRWIYDTSKLASGVPSRFSGSGSGTSYSLTISSMEAEDAATYYCQQWSSNPWTFGGGTKLEIK
12300 | 7250 | – | Ab01 (antibody, V domains shown, mouse monoclonal (hybridoma)) VH: DVQLQESGPGLVKPSQSLSLTCSVTGYSITSGYYWNWIRQFPGNKLEWMGYITYDGSNNYNPSLKNRISITRDTSKNQFFLKLNSVTTEDAATYFCARDPNYYGTTLPAWFVYWGQGTLVTVSA VL: DIVVTQSHKFMSTSVGDRVSITCKASQDVGTAVAWYQQKPGQSPKLLIYWASTRHTGVPDRFTGSGSGTDFTLTISNVQSEDLTDYFCQQYSSYVTFGAGTKLELK
10100 | 79.4 | no binding | Ab21 (antibody, V domains shown, mouse monoclonal (hybridoma)) VH: EVMLVESGGGLVKPGGSLKLSCAASGFTFSSYTMSWVRQTPEKRLEWVATIIGGYGNTYYVDSVKGRFTISRDSAKNTLYLQMISLRSEDTALYYCTRLGQTQRNAMDYWGQGTSVTVSS VL: DILMTQSPSSLSVSAGEKVTMSCKSSQSLLNSGNQKNYLAWYQQKPGQPPKLLIYGASTRESGVPDRFTGSGSGTDFTLTISSVQAEDLAVYYCQNDYYYPFTFGAGTKLEL
9730 | 80.8 | no binding | Ab26 (antibody, V domains shown, mouse monoclonal (hybridoma)) VH: EVMLVESGGGLVKPGGSLKLSCTASGFTFRSYTMSWVRQTPEKRLEWVATITGGGGNTYFLDSVKGRFTFSRDNAKNALYLQMNSLRSEDTALYYCARLGQTQRNAMDYWGQGTSVTVSS VL: DIVMTQSPSSLSVSAGEKVTMSCKSSQSLLNSGNQMNYLAWYQQKPGQPPKLLIYGASTRESGVPDRFTGSGSGTDFTLTISSVQAEDLAIYYCQNDHTYPLTFGAGTKLEL
7580 | 82.3 | no binding | Ab20 (antibody, V domains shown, mouse monoclonal (hybridoma)) VH: EVMLVESGGGLVKPGGSLKLSCVASGFTFSSYTMSWVRQTPEKRLEWVATIIGGYGNTYYSDSVKGRITISRDSAKNTLYLQMISLRSEDTALYYCTRLGQTQRNAMDYWGQGTSVTVSS VL: DILMTQSPSSLSVSAGEKVTMNCKSSQSLLNSGNQKNYLAWYQQKPGQPPKLLIYGASTRESGVPDRFTGSGSGTDFTLTISSVQAEDLAVYYCQNDYYYPFTFGAGTKLEL
8600 | 82.3 | no binding | Ab23 (antibody, V domains shown, mouse monoclonal (hybridoma)) VH: EVMLVESGGGLVKPGGSLKLSCVASGFTFSSYTMSWVRQTPEKRLEWVATLSVVGGNTYYVDSVKGRFTISRDKAKNTLYLQMSSLRSEDTALYYCARLGQTQRNAMDYWGQGTSVTVSS VL: DIVMTQSPSSLSVSAGEKVTMSCKSSQSLLNSGNQKNYLAWYQQKPGQPPKLLIYGASTRESGVPDRFTGSGSGTDFTLTISSVQAEDLAVYYCQNDYSYPLTFGAGTKLEL
9020 | 82.3 | no binding | Ab22 (antibody, V domains shown, mouse monoclonal (hybridoma)) VH: EVMLVESGGGLVKPGGSLKLSCAASGFTFSSYTMSWVRQTPEKRLEWVATIIGGYGNTYYADSVKGRFTISRDSAKNTLYLQMISLRSEDTALYYCTRLGQTQRNAMDYWGQGTSVTVSS VL: DILMTQSPSSLSVSAGEKVTMSCKSSQSLLNSGNQKNYLAWYQQKPGQPPKLLIYGASTRESGVPDTFTGSGSGTDFTLTISSVQAEDLAVYYCQNDYYYPFTFGAGTKLEL
7560 | 98.5 | no binding | Ab30 (antibody, V domains shown, mouse monoclonal (hybridoma)) VH: QVQLKESGPGLVAPSQSLSITCTVSGFSLTKFGVNWVRQPPGKGLEWLGAIWGDGSTNYHSALISRLSINKDNSKSQVFLKLSSLQNVDTATYYCAKSGYGNAMDYWGHGTSVTVSS VL: DIVMTQSPSSLTVTTGEKVTLNCKSSQSLLNSGNLKNYLTWYQQRPGQPPKLLIYWASTRESGVPYRFTGSGSGTDFTLTISNVQAEDLAIYYCQNDYFFPFTFGSGTKLEIK
5520 | 97 | no binding | Ab31 (antibody, V domains shown, mouse monoclonal (hybridoma)) VH: QIQLAQSGPELKKPGETVKISCKASGYSFTNYGMNWVKQAPGKGLKWMGWINTYSGETKYADDFKGRFDFSLETSARTAYLQIKNLKIEDTATYFCARRDAMDYWGQGTSVTVSS VL: DIVMTQAAPSVPVTPGESVSISCRSSKSLLNSNGNTYLYWFLQRPGQSPQLLIYRMSNLASGVPDRFSGSGSGTAFTLRISRVEAEDVGVYYCMQHLEFPFTFGSGTKLEIK
17600 | 6920 | – | Ab04 (antibody, V domains shown, mouse monoclonal (hybridoma)) VH: EVQLQQSGPELVKPGASVKMSCMASGYTFTDYNIHWVKRSHGSRLEWIGYISPISGGAGYNQKFMDKATLTVDKSSNTAYMELRSLTSEDSAVYYCTRGDYWGQGTTLTVSS VL: DIVMTQSPSSLAVTVGEKVTMSCKSSQSLLNSGNQKNYLTWYQQKPGQPPKLLIYWASTRKSGVPDRFTGSGSGTDFTLTISSVQAEDLGIYYCLNDYGFPLTFGAGSKLELK
18000 | – | – | Ab36 (antibody, V domains shown, mouse monoclonal (hybridoma)) VH: EVKLEESGGGLVQPGGSMKLSCVASGFTFSNYWMNWVRQSPEKGLEWVAQIRLKSDNYATHYAESVKGMFTISRDDSKSSVYLQMNNLRAEDTGIYYCTAGGDYWGQGTTLTVSS VL: DIVMTQSQKFMSTTVGDRVSITCKASQNVGTAVAWYHQKPGQSPKLLIYSASNRYTGVPDRFIGSGSGTDFTLTISNVQSEDLGNYFCQQYINYLLTFGSGTKLEIK
15200 | 4590 | – | Ab37 (antibody, V domains shown, mouse monoclonal (hybridoma)) VH: EVKLEESGGGLVQPGGSMKLSCVASGFTFSNYWMNWVRQYPEQGLEWVAQIRLNSDNYATHYAESVKGRFTISRDDSRSTVYLQMNNLRAEDTGIYYCTGGGEYWGQGTTLTVSS VL: DIVMTQSQKFMSTTIGDRVSITCKASQNVDTAVAWYQQKPGQSPKLLIYSASTRYTGVPDRFTGSGSGTDFTLTISNMQSEDLADYFCQQYISYQLTFGAGTKLELK
7150 | 97 | no binding | Ab27 (antibody, V domains shown, mouse monoclonal (hybridoma)) VH: QVQLQQSGAELVRPGSSVKISCKASGYAFSNYWMNWVKQRPGQGLEWIGQIYPGNGDTNYNGKFKGKATLTADKSSTTAYIQLSSLTSEDSAVYFCTRIYYGNSFAYWGQGTLVTVS VL: DIVMTQSPSSLTVTAGERVTMSCKSSQSLLNSGNQKNYLTWYQQKPGQPPKLLIYWASTRESGVPDRFTGSGSGTDFTLTISRVQAQDLAVYYCQNDYYYPLTFGAGTKLELK
8200 | 97 | no binding | Ab33 (antibody, V domains shown, mouse monoclonal (hybridoma)) VH: DVNLVESGGGLVKPGGSLKLSCAASGFTFSSYTMSWVRQTPEKRLEWVATITYGRIYTYYLDSVKGRFTISRDNAKNTLYLQMSSLRSEDTAMYYCTRMITGNAMDSWGLGTSVTVSS VL: DIVMTQSPSSLTVTAGEKVTMSCKSSQSLLNSGNQKNYLTWYQQKPGQPPKLLIYWASTRESGVPDRFTGSGSGTDFTLTISGVQGEDLAVYYCQNDYSYPLTFGGGTKLELK
8730 | 172 | no binding | Ab32 (antibody, V domains shown, mouse monoclonal (hybridoma)) VH: QVQLKESGPGLVAPSQSLSITCTVSGFSLTSHGVHWVRQPPGKGLEWLGVIWAGGSINFNSALMSRLSISKDNSKNQVFLKMNSLQSDDTAMYYCARDYYYGIGLDYWGQGTTLTVS VL: DIVMTQSPSSLSVSAGEKVTMSCKSSQSLLNSGNQKNYLAWYQQKPGQPPKLLIYGASTRESGVPDRFTGSGSGTDFTLTISSVQAEDLAVYYCQNDYYYPFTFGSGTKLEIK
8880 | 206 | no binding | Ab28 (antibody, V domains shown, mouse monoclonal (hybridoma)) VH: QVQLKESGPGLVAPSQSLSITCTVSGFSLTSHGVHWVRQPPGKGLEWLGVIWAGGSINFNSALMSRLSISKDNSKNQVFLKMNSLQSDDTAMYYCARDYYYGIGLDYWGQGTTLTVS VL: DIVMTQSPSSLSVSAGEKVTMSCKSSQSLLNSGNQKNYLAWYQQKPGQPPKLLIYGASTRESGVPDRFTGSGSGTDFTLTISSVQAEDLAVYYCQNDYYYPFTFGSGTKLEIK
9070 | 91.1 | no binding | Ab34 (antibody, V domains shown, mouse monoclonal (hybridoma)) VH: EVLLQQSGPELVKPGASVKIPCKASGYTFSDYNMDWVKQSHGKSLEWIGHINPNNDNTIYNQKFKGKATLTVDKSSNTAYMDLRSLSSEDTAVYYCARGAYYGNSMDYWGQGTSVTVSS VL: DIVMTQSPSSLTVTAGERVTMSCKSSQSLLNGGNQRNYLTWYQQKPGQSPKLLIYWASTWESGVPDRFTGSGSGTDFTLTISSVQAEDLAVYYCQNAYFYPYTFGGGTKLEIK
1960 | 95.6 | no binding | Ab03 (antibody, V domains shown, mouse monoclonal (hybridoma)) VH: EVQLQQSGPELVKPGASVKIACKASGYTFTDYNMDWVKQSHGKSLEWIGNINSYYGGTIYNQKFKGKATLTVDKSSSTAYMVLRSLTSEDNAVYYCARPHLGNALDYWGQGTSITVSS VL: DIVVTQSPSSLTVTPGEKVTMSCKSSQSLFNSGNQKNYLSWYQQNPGQPPKLLIYWASTRQSGVPDRFTGSGSGTDFTLTISSVQAEDLAGYYCQNDYIFPLTFGAGTKLELK
19100 | 97 | no binding | Ab29 (antibody, V domains shown, mouse monoclonal (hybridoma)) VH: EVLLQQSGPELVKPGASVKIPCKASGYTLTDHSMDWVKQSHGKSLEWIGNILPNNGGNIYNQKFRGKATLTVDKSSSTAYMELRSLTSEDTAVYNCARGHYGNSFAYWGQGTLVIVS VL: DIVMTQSPSSLTVRAGEKVTIYCKSSQSLFNSGNQKNYLTWYQQKPGQPPKLLIYWASTRESGVPHRFTGSGSGTDFTLTISSMQADDLATYYCQNGYFFPYTFGGGTKLEIK
